Results on two substances are retold here after patent US20120087899A1.

The target in series [1] is Bone morphogenetic protein-2 (BMP-2) (Homo sapiens) (UniProt P12643). As to the kind of experiment: cell-based or functional assay.
Sequence of UniProt P12643 (P12643 283-396, form in doubt): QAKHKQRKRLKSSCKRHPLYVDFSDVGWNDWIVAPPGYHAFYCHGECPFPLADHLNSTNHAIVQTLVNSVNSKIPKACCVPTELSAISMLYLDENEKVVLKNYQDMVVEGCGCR

Factor Xa (FXa): in the series with Antithrombin (AT), the “FXa activity (cleavage of chromogenic substrate S-2222), AT pre-incubated with HS5” value is given as “HS5 did not activate AT at any doses tested”; the “FXa activity (cleavage of chromogenic substrate S-2222), AT pre-incubated with heparin” value is given as “heparin (a known anticoagulant) dose dependently activated AT resulting in the inhibition of FXa”; the “FXa activity (cleavage of chromogenic substrate S-2222), AT pre-incubated with pHS or bHS” value is given as “In the presence of pHS or bHS, AT significantly reduced FXa activity, but only at 3 µg/mL”.
Regarding noggin (ligand), in series [1], the inhibition of BMP-2-induced ALP activity in C2C12 cells, noggin at 300 ng/mL, in the presence of heparin or HS5 (3 µg/mL) was determined as 20% and the inhibition of BMP-2-induced ALP activity in C2C12 cells, noggin at 300 ng/mL, no GAG was determined as 70%.
